Assays:
[1] = target: PD-1 and LAG-3 on CD4+ and CD8+ cells of patients' peripheral blood; assay: receptor occupancy by flow cytometry on patients' whole blood, CD8+ cells; Emax model
[2] = target: PD-1 and LAG-3 on CD4+ and CD8+ cells of patients' peripheral blood; assay: receptor occupancy by flow cytometry on patients' whole blood, CD4+ cells; Emax model of % binding against DART-I concentration
[3] = target: PD-1 and LAG-3 on CD4+ and CD8+ cells of patients' peripheral blood; assay: receptor occupancy by flow cytometry on patients' whole blood, CD4+ cells; Emax model
[4] = target: PD-1 and LAG-3 on CD4+ and CD8+ cells of patients' peripheral blood; assay: receptor occupancy by flow cytometry on patients' whole blood, CD8+ cells; Emax model of % binding against DART-I concentration

B1: DART-I (bispecific antibody, human IgG4 S228P)
chain 1: DIQMTQSPSSLSASVGDRVTITCRASQDVSSVVAWYQQKPGKAPKLLIYSASYRYTGVPSRFSGSGSGTDFTLTISSLQPEDFATYYCQQHYSTPWTFGGGTKLEIKGGGSGGGGQVQLVQSGAEVKKPGASVKVSCKASGYSFTSYWMNWVRQAPGQGLEWIGVIHPSDSETWLDQKFKDRVTITVDKSTSTAYMELSSLRSEDTAVYYCAREHYGTSPFAYWGQGTLVTVSSGGCGGGEVAACEKEVAALEKEVAALEKEVAALEKESKYGPPCPPCPAPEFLGGPSVFLFPPKPKDTLYITREPEVTCVVVDVSQEDPEVQFNWYVDGVEVHNAKTKPREEQFNSTYRVVSVLTVLHQDWLNGKEYKCKVSNKGLPSSIEKTISKAKGQPREPQVYTLPPSQEEMTKNQVSLTCLVKGFYPSDIAVEWESNGQPENNYKTTPPVLDSDGSFFLYSRLTVDKSRWQEGNVFSCSVMHEALHNHYTQKSLSLSLG
chain 2: EIVLTQSPATLSLSPGERATLSCRASESVDNYGMSFMNWFQQKPGQPPKLLIHAASNQGSGVPSRFSGSGSGTDFTLTISSLEPEDFAVYFCQQSKEVPYTFGGGTKVEIKGGGSGGGGQVQLVQSGAEVKKPGASVKVSCKASGYTFTDYNMDWVRQAPGQGLEWMGDINPDNGVTIYNQKFEGRVTMTTDTSTSTAYMELRSLRSDDTAVYYCAREADYFYFDYWGQGTTLTVSSGGCGGGKVAACKEKVAALKEKVAALKEKVAALKE
concentration at which 90% of max RO is achieved [1]: 0.1 µg/mL | EC50 [2]: 0.045 µg/mL | concentration at which 90% of max RO is achieved [3]: 0.6 µg/mL | EC50 [4]: 0.011 µg/mL
